Values of other authors, collected in publication PMC8711257.

What was measured:
MET (Homo sapiens) = MET (Homo sapiens) (UniProt P08581)
MET ECD (Homo sapiens) = MET ECD (Homo sapiens) (UniProt P08581)

Substance: HGF NK1 NK1 (from UniProt P14210)
- Kd (MET (Homo sapiens)): 3 nM
- Kd (MET ECD (Homo sapiens)): 150 nM
